38 molecules from patent publication US20260242478A1 (published 2026) can be followed below.

Where no end group is shown, it is not given here.

For assay [1], the target named is T1, Anti-PSMA Fab (006 PSMA Fab) (biotinylated (site not stated)).
T1 construct: Biotinylated PSMA Fab captured on neutravidin coated plates
Kind of assay: clonal phage ELISA on PSMA Fab pre-incubated with PSMA antigen as competitor, anti-M13 HRP detection. (An ELISA detects its analyte on a solid surface through an enzyme-linked reagent.)

In assay [2] the target is T1, Anti-PSMA Fab (006 PSMA Fab). Kind of assay: clonal phage ELISA, biotinylated PSMA Fab on neutravidin plates, anti-M13 HRP detection.
Method: (§1) Clonal phage were harvested as crude supernatants and screened via standard ELISAs. […] Prior to the addition of clonal phage. wells were incubated with blocking buffer and PSMA antigen or blocking buffer alone. Without washing or aspirating, clonal phage supernatants were then added to the wells and incubated for a short time. Wells were then washed followed by detection of bound phage using a horse radish conjugated anti-M13 antibody.
Assay [3] addresses T2, PSMA Fab (biotinylated (site not stated)).
T2 construct: also called Anti-PSMA Fab; 006 PSMA Fab
The experiment in a line: phage ELISA; biotinylated PSMA Fab on neutravidin plate, clonal phage supernatant, anti-M13 HRP detection.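 Also: wells preincubated with PSMA antigen in blocking buffer or with blocking buffer only before clonal phage were added for a short incubation, then bound phage detected.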

Assay [4] concerns the target T2, PSMA Fab. Kind of assay: phage ELISA; PSMA Fab on plate pre-incubated with PSMA antigen as competitor, anti-M13 HRP detection.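 Also: crude clonal phage supernatants added to Fab-coated wells still holding PSMA antigen in blocking buffer, with bound phage as read-out.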
Method: as §1
Assay [5] deals with T3, PSMA Fab (006 PSMA Fab).
T3 construct: also called Anti-PSMA Fab; anti-PSMA Fab
The experiment in a line: clonal phage ELISA; biotinylated PSMA Fab on neutravidin plate, wells pre-incubated with PSMA antigen (competitor); anti-M13 HRP detection.
Method: as §1

Assay [6] deals with T3, PSMA Fab (006 PSMA Fab). The experiment in a line: clonal phage ELISA; biotinylated PSMA Fab on neutravidin plate, blocking buffer alone; anti-M13 HRP detection.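 Also: crude clonal phage supernatants added without washing to wells pretreated with blocking buffer with or without PSMA antigen, short incubation, then washed before detecting bound phage.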
Method: as §1
Assay [7] deals with T4, Anti-PSMA Fab (biotinylated (site not stated)).
T4 construct: The biotinylated PSMA Fab was captured on neutravidin coated plates for the phage ELISA; also called 006 PSMA Fab
The experiment in a line: phage ELISA; captured anti-PSMA Fab pre-incubated with PSMA antigen as competitor.

For assay [8], the target named is T4, Anti-PSMA Fab. Kind of assay: phage ELISA; biotinylated anti-PSMA Fab on neutravidin plate, anti-M13-HRP detection, no PSMA antigen.
Method: as §1

For QWLRCEPEWMCIGF [Phage-3012], the “Phage binding ELISA signal, Anti-PSMA Fab with PSMA antigen” value in assay [1] stood at 0.212. Besides, in assay [2], the “Phage binding ELISA signal, Anti-PSMA Fab” value was 2.21.

Consider FHVRCVPEWMCWGF [Phage-2991], for which the “Phage binding ELISA signal, Anti-PSMA Fab” value in assay [3] was found to be 2.22. Further, the “phage binding ELISA signal (Anti-PSMA Fab, PSMA antigen present)” value in assay [4] worked out at 0.153.

Take DHLMCKPSWMCKGF [Phage-3022]: the “Phage binding ELISA signal, Anti-PSMA Fab in presence of PSMA antigen” value (“Phage binding ELISA signal … of PSMA antigen” for short) in assay [5] was determined as 0.0924. The “Phage binding ELISA signal, Anti-PSMA Fab” value in assay [6] amounted to 2.19.

In the case of YQLLCKPEWMCVGF [Phage-3002], the “Phage binding ELISA signal, Anti-PSMA Fab” value in assay [3] was found to be 2.21. Also, the “phage binding ELISA signal (Anti-PSMA Fab, PSMA antigen present)” value in assay [4] was 0.0672.

B1: Phage-2987 (peptide)
peptide: LLVRCQPEWMCVGF
notes: It was tested as crude clonal phage supernatant; also called Peptide-180 library clone
In the case of B1, in assay [7], the “Phage binding ELISA signal, Anti-PSMA Fab with PSMA antigen” value amounted to 0.14. Further, the “Phage binding ELISA signal, Anti-PSMA Fab” value in assay [8] was 2.23.

In the case of GGLRCEPMWMCHGF [Phage-3021], the “Phage binding ELISA signal … of PSMA antigen” value in assay [5] was found to be 0.122. Further, the “Phage binding ELISA signal, Anti-PSMA Fab” value in assay [6] amounted to 2.2.

Regarding IARMCVPEWMCQEL [Phage-2999], in assay [3], the “Phage binding ELISA signal, Anti-PSMA Fab” value worked out at 2.22. For the same molecule, the “phage binding ELISA signal (Anti-PSMA Fab, PSMA antigen present)” value in assay [4] is 0.107.

SEVMCVPQWMCNGF [Phage-3008]: the “Phage binding ELISA signal, Anti-PSMA Fab with PSMA antigen” value in assay [1] amounted to 0.0981. The “Phage binding ELISA signal, Anti-PSMA Fab” value in assay [2] was 2.21.

MLPWCVPHWMCDGF [Phage-3003]: the “Phage binding ELISA signal, Anti-PSMA Fab” value in assay [3] is 2.21. The “phage binding ELISA signal (Anti-PSMA Fab, PSMA antigen present)” value in assay [4] was 0.132.

B2: Phage-2989 (peptide)
peptide: TVVMCKPSWMCEGF
notes: as for B1
Turning to B2, in assay [7], the “Phage binding ELISA signal, Anti-PSMA Fab with PSMA antigen” value came to 0.083. Further, in assay [8], the “Phage binding ELISA signal, Anti-PSMA Fab” value came out at 2.22.

B3: Phage-2990 (peptide)
peptide: TTIMCEPTWMCTGF
modifications: cysteine pairing not given here; also: peptide displayed as fusion to phage pIII
Turning to B3, in assay [3], the “Phage binding ELISA signal, Anti-PSMA Fab” value turned out to be 2.22. Besides, the “phage binding ELISA signal (Anti-PSMA Fab, PSMA antigen present)” value in assay [4] amounted to 0.0683.

On to WEPVCKPDWMCNGF [Phage-3011], for which the “Phage binding ELISA signal, Anti-PSMA Fab with PSMA antigen” value in assay [1] was found to be 0.08. In assay [2], the “Phage binding ELISA signal, Anti-PSMA Fab” value was 2.21.

PAEWCIPVWMCTGF [Phage-3015]: in assay [1], the “Phage binding ELISA signal, Anti-PSMA Fab with PSMA antigen” value stood at 0.0732. For the same molecule, in assay [2], the “Phage binding ELISA signal, Anti-PSMA Fab” value came out at 2.2.

Consider VEPMCRPAWMCLGF [Phage-3004], for which, in assay [1], the “Phage binding ELISA signal, Anti-PSMA Fab with PSMA antigen” value turned out to be 0.0882. Further, the “Phage binding ELISA signal, Anti-PSMA Fab” value in assay [2] stood at 2.21.

On to YEIRCEPKWMCMGF [Phage-2992], for which the “Phage binding ELISA signal, Anti-PSMA Fab” value in assay [3] stood at 2.22. Besides, in assay [4], the “phage binding ELISA signal (Anti-PSMA Fab, PSMA antigen present)” value turned out to be 0.0735.

In the case of WWPSCVPEWMCAGL [Phage-3009], in assay [1], the “Phage binding ELISA signal, Anti-PSMA Fab with PSMA antigen” value was 0.129. The “Phage binding ELISA signal, Anti-PSMA Fab” value in assay [2] was 2.21.

Take IESRCVPEWMCYGF [Phage-3019]: the “Phage binding ELISA signal … of PSMA antigen” value in assay [5] came out at 0.0726. Moreover, in assay [6], the “Phage binding ELISA signal, Anti-PSMA Fab” value was determined as 2.2.

Regarding MSPRCVPMWMCDWL [Phage-2997], the “Phage binding ELISA signal, Anti-PSMA Fab” value in assay [3] was 2.22. The “phage binding ELISA signal (Anti-PSMA Fab, PSMA antigen present)” value in assay [4] was found to be 0.0821.

Turning to STMMCVPPWMCMGF [Phage-3013], in assay [1], the “Phage binding ELISA signal, Anti-PSMA Fab with PSMA antigen” value was found to be 0.0775. Also, the “Phage binding ELISA signal, Anti-PSMA Fab” value in assay [2] was 2.21.

With GMPYCVPEWMCSWL [Phage-3010], in assay [1], the “Phage binding ELISA signal, Anti-PSMA Fab with PSMA antigen” value stood at 0.0827. Also, in assay [2], the “Phage binding ELISA signal, Anti-PSMA Fab” value turned out to be 2.21.

MYHMCRPSWMCEGF [Phage-3007]: the “Phage binding ELISA signal, Anti-PSMA Fab with PSMA antigen” value in assay [1] came to 0.142. Further, the “Phage binding ELISA signal, Anti-PSMA Fab” value in assay [2] worked out at 2.21.

In the case of VMVECRPAWMCNGF [Phage-3006], the “Phage binding ELISA signal, Anti-PSMA Fab with PSMA antigen” value in assay [1] was determined as 0.0636. Besides, the “Phage binding ELISA signal, Anti-PSMA Fab” value in assay [2] was found to be 2.21.

With EIPVCRPAWMCLGL [Phage-3000], in assay [3], the “Phage binding ELISA signal, Anti-PSMA Fab” value was determined as 2.22. The “phage binding ELISA signal (Anti-PSMA Fab, PSMA antigen present)” value in assay [4] turned out to be 0.0698.

Take VQGVCVPSWMCTGF [Phage-3017]: the “Phage binding ELISA signal, Anti-PSMA Fab with PSMA antigen” value in assay [1] was 0.0875. The “Phage binding ELISA signal, Anti-PSMA Fab” value in assay [2] came out at 2.2.

In the case of TVPKCVPNWMCDWL [Phage-3023], the “Phage binding ELISA signal … of PSMA antigen” value in assay [5] was 0.0864. Further, the “Phage binding ELISA signal, Anti-PSMA Fab” value in assay [6] was determined as 2.19.

B4: Phage-2986 (peptide)
peptide: SQPMCIPVWMCRGF
notes: as for B1
Regarding B4, the “Phage binding ELISA signal, Anti-PSMA Fab with PSMA antigen” value in assay [7] came to 0.109. Also, the “Phage binding ELISA signal, Anti-PSMA Fab” value in assay [8] was 2.23.

As for EEKMCTPQWMCSGF [Phage-3020], the “Phage binding ELISA signal … of PSMA antigen” value in assay [5] amounted to 0.0688. In assay [6], the “Phage binding ELISA signal, Anti-PSMA Fab” value is 2.2.

Turning to AIAHCIPQWMCSGF [Phage-2995], the “Phage binding ELISA signal, Anti-PSMA Fab” value in assay [3] turned out to be 2.22. In addition, the “phage binding ELISA signal (Anti-PSMA Fab, PSMA antigen present)” value in assay [4] worked out at 0.0878.

In the case of HEAMCRPTWMCHGF [Phage-3018], the “Phage binding ELISA signal … of PSMA antigen” value in assay [5] was found to be 0.0722. The “Phage binding ELISA signal, Anti-PSMA Fab” value in assay [6] was determined as 2.2.

Take PEALCMPPWMCHGF [Phage-2996]: the “Phage binding ELISA signal, Anti-PSMA Fab” value in assay [3] came to 2.22. Besides, the “phage binding ELISA signal (Anti-PSMA Fab, PSMA antigen present)” value in assay [4] is 0.0657.

B5: Phage-2988 (peptide)
peptide: FTAYCKPAWMCQGL
notes: as for B1
As to B5, in assay [7], the “Phage binding ELISA signal, Anti-PSMA Fab with PSMA antigen” value was found to be 0.0917. Further, the “Phage binding ELISA signal, Anti-PSMA Fab” value in assay [8] came to 2.22.

For the molecule ANVACIPPWMCLGF [Phage-3016], the “Phage binding ELISA signal, Anti-PSMA Fab with PSMA antigen” value in assay [1] amounted to 0.109. For the same molecule, the “Phage binding ELISA signal, Anti-PSMA Fab” value in assay [2] amounted to 2.2.

As to VVAHCVPSWMCTGF [Phage-2998], the “Phage binding ELISA signal, Anti-PSMA Fab” value in assay [3] was 2.22. The “phage binding ELISA signal (Anti-PSMA Fab, PSMA antigen present)” value in assay [4] was found to be 0.0901.

B6: Phage-2993 (peptide)
peptide: LAHMCIPAWMCAGL
modifications: cysteine pairing not given here; also: peptide displayed as fusion to phage pIII
Consider B6, for which the “Phage binding ELISA signal, Anti-PSMA Fab” value in assay [3] came out at 2.22. In assay [4], the “phage binding ELISA signal (Anti-PSMA Fab, PSMA antigen present)” value came to 0.104.

For the molecule AELLCVPTWMCMGF [Phage-3014], the “Phage binding ELISA signal, Anti-PSMA Fab with PSMA antigen” value in assay [1] is 0.0679. Besides, the “Phage binding ELISA signal, Anti-PSMA Fab” value in assay [2] was 2.2.

As for LQSMCRPAWMCTGF [Phage-2994], in assay [3], the “Phage binding ELISA signal, Anti-PSMA Fab” value was 2.22. In addition, the “phage binding ELISA signal (Anti-PSMA Fab, PSMA antigen present)” value in assay [4] was found to be 0.0839.

With ALPMCEPFWMCTGF [Phage-3005], the “Phage binding ELISA signal, Anti-PSMA Fab with PSMA antigen” value in assay [1] worked out at 0.0628. Besides, in assay [2], the “Phage binding ELISA signal, Anti-PSMA Fab” value came to 2.21.

Turning to MMPLCMPTWMCEGF [Phage-3001], the “Phage binding ELISA signal, Anti-PSMA Fab” value in assay [3] stood at 2.22. Further, in assay [4], the “phage binding ELISA signal (Anti-PSMA Fab, PSMA antigen present)” value is 0.075.
